Here are results for five variants from paper PMC4960622, “Crystal structures of RidA, an important enzyme for the prevention of toxic side products” (Scientific Reports, 2016).

The chains are these.
B1: Arabidopsis thaliana RidA, construct starting from S68 (AtRidA-S68), wild type [Arabidopsis thaliana] / itself (parent)
chain: STEKAPAALGPYSQAIKANNLVFLSGVLGLIPETGKFVSESVEDQTEQVLKNMGEILKASGADYSSVVKTTIMLADLADFKTVNEIYAKYFPAPSPARSTYQVAALPLNAKIEIECIATL

Variants of B1 are the subject of this assay. Briefly: size-exclusion chromatography (Superdex-75). The conditions noted are these: with itself; 0.5 mg protein loaded; read off a plot. (In general: In gel filtration, larger molecules generally elute earlier.)
In the case of STEKAPAALGPYSQAIKANNLVFLSGVLGLIPETGKFVSESVEDQTEQVLKNMGEILKASGADYSSVVKTTIMLADLADFKTVNEIYAKYFPAPSPARSTYQVAALPLNAKIEIACIATL, the screen value was 11.6 mL. Next, STEKAPAALGPYSQAIKANNLVFLSGVLGLIPETGKFVSESVEDQTEQVLKNMGEILKASGADYSSVVRTTIMLADLADFKTVNEIYAKYFPAPSPARSTYQVAALPLNAKIEIECIATL: 11.4 mL; STEKAPAALGPYSQAIKANNLVFLSGVLGLIPETGKFVSESVEDQTEQVLKNMGEILKASGADYSSVVATTIMLADLADFKTVNEIYAKYFPAPSPARSTYQVAALPLNAKIEIECIATL: 12 mL; STEKAPAALGPYAQAIKANNLVFLSGVLGLIPETGKFVSESVEDQTEQVLKNMGEILKASGADYSSVVKTTIMLADLADFKTVNEIYAKYFPAPSPARSTYQVAALPLNAKIEIECIATL: 11.4 mL. Next, STEKAPAALGPYSQAIKANNLVFLSGVLGLIPETGKFVSESVEDQTEQVLKNMGEILKASGADYSSVVKTTIMLADLADFKTVNEIYAKYFPAPSPARATYQVAALPLNAKIEIECIATL: 11.6 mL.
